From the supplement of paper PMC12764529
± gives the half width of the 95% confidence interval.

Columns and labels:
[1] = folding stability dG unfold (combined trypsin and chymotrypsin); higher = more stable
How it was run: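 Only designs with AlphaFold2 dimer inter-PAE above 15 were retained; each was a mini-protein under 80 residues with no cysteine, in a PA-tagged cDNA display construct. After digestion with trypsin and chymotrypsin and sequencing, K50 was inferred by Bayesian fitting of counts, and unfolding free energy was derived per protease or combined against a sequence-predicted unfolded-state K50 and a shared folded-state K50.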

[2] = folding stability dG unfold from trypsin proteolysis; higher = more stable
Method: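 Folding stability of de novo designed mini-proteins (<80 aa, no Cys; designed by TrROS, TrMRF, ProteinMPNN and the joint model) was measured by cDNA display proteolysis with trypsin and chymotrypsin. Each protease was used at 11 concentrations in a threefold dilution series plus a no-protease condition. K50 was inferred by Bayesian fitting of sequencing counts, and dG unfold was derived against a sequence-predicted unfolded-state K50 (Tsuboyama et al. method). Sequences shown include variable-length N-terminal GS-type padding (SAGGSAGG...) inside a display construct carrying a PA tag. Rows were kept only if the AF2 dimer inter-PAE was >15, to exclude likely homo-oligomers.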

| Sequence | folding stability dG unfold [1] [kcal/mol] | folding stability dG unfold [2] [kcal/mol] |
| --- | --- | --- |
| SAGGSAGGSAPKPKIEPVNNTITIDIPPKENVQIFFPNGKQEEFPVEPGKEIKIPPGMYLYPSAGGSAGGSA [r18_452_TrROS] | < -1 | -0.356 ± 0.055 |
| SAGGSAGGSASAPADETLTAELTSPESDERYTVLVTPEGMTAVDEAGRTTPLSPAVLVSVTAPSAGGSAGGS [r20_35_JUSTAS] | 0.0934 ± 0.075 | 0.862 ± 0.034 |
| SAGGSAGGSASIEVEAEPAEIEKVAEEAPEDEEVLVRDPKTGRVYLVKPDEVVLLREVPALLSAGGSAGGSA [r18_246_JUSTAS] | -0.821 ± 0.48 | -0.238 ± 0.086 |
| SAGGSAGGSASKYVKVTVRLTPPDGTTRTVEITDPNKTVEEIIASLPSDEPVEVTEVEELPPSAGGSAGGSA [r18_32_JUSTAS] | -0.806 ± 0.49 | 0.197 ± 0.18 |
| SAGGSAGGSASMTITLPGMSLEEAKAAAEAHPDHPVLLETPEGRLIEITPEGVVTVRPLPESAGGSAGGSAG [r3_269_JUSTAS] | -0.937 ± 0.17 | -0.147 ± 0.029 |
| SAGGSAGGSATIKIKVPPGEPYMIRIRWPDGKSHEHNVPPGEEITIPPDNFDGITPIEIQPYSAGGSAGGSA [r18_210_TrROS] | 0.11 ± 0.56 | 0.288 ± 0.19 |
| SAGGSAGGSENNIVIKMKMEMPNQEMKFRFPIPADKLKDALKEGKPIKFPNGMNVRITEIIPVSAGGSAGGS [r12_432_TrROS] | < -1 | -0.864 ± 0.81 |
| SAGGSAGGSGMISKTEVERLPDGTVIERKEYPEGGLTTLKIYKVPPDGVPTLVEEKLVPEKLISAGGSAGGS [r12_695_JUSTAS] | -0.69 ± 0.24 | -0.612 ± 0.17 |
| SAGGSAGGSGNPDTPTSPVFVVIEKTTTVVPAPNGLYPKRTSVKISIPGGAAAGAEELIAELLSAGGSAGGS [r12_933_JUSTAS] | < -1 | -0.2 ± 0.13 |
| SAGGSAGGSKKVVTYESVTLTVLVERTLPDPEGNPVTTTRVVEEPVRVTKVDFDTKVETYVVGSAGGSAGGS [r20_58_JUSTAS] | -0.623 ± 0.33 | -0.0343 ± 0.14 |
| SAGGSAGGSMKPEVVEEIIKKAEEEGYEIDSVTVNPETNVPVIHFNWPSPELAEKDPELREAASAGGSAGGS [r12_482_TrMRF] | < -1 | 0.13 ± 0.12 |
| SAGGSAGGSMPPEELRKKILEDPNVEVLSIEPPGPEVTLITTKYPRETETPTTETVTEKLPVPLSAGGSAGG [r6_154_JUSTAS] | -0.568 ± 0.33 | -0.392 ± 0.33 |
| SAGGSAGGSMVYVVKVEIPETGEEYEFLNPEDKETVEREVRELFPDPEVKAEIEEIEVEPELLSAGGSAGGS [r12_92_TrMRF] | < -1 | -0.175 ± 0.15 |
| SAGGSAGGSREIKIDDFERHNGYYYITVEIKDPNNGKKRPLEIPYPPNQPNADRFAKDIADELSAGGSAGGS [r12_415_TrROS] | < -1 | -0.751 ± 0.43 |
| SAGGSAGGSSMPLTVEELLASVGPDKTATVLVPPGTSIPANITPLGTEPEGGWRTFAIPASLVSAGGSAGGS [r12_356_JUSTAS] | -0.971 ± 0.25 | -0.137 ± 0.12 |
| SAGGSAGGSSMPVKVTRTPVPSSAPPSTEFLETVTYPDGTVTTYRFRRDDGSVTSVRVSTSPASAGGSAGGS [r12_1049_JUSTAS] | < -1 | -0.535 ± 0.71 |
| SAGGSAGGSSPPVVTVEKYSEEPSPGVLRAVIRHPDGKEIVVTFEDLSPEEAKARAEEVAKLGSAGGSAGGS [r20_181_JUSTAS] | < -1 | 0.00637 ± 0.068 |
| SAGGSAKLEINIIIPGMPPERAKRKARNIAAELRKQGLPKENIKDVDIKVIVMPWRRDPDNKWKPMSAGGSA [r15_684_TrROS] | -0.0462 ± 0.12 | 0.506 ± 0.079 |
| SAGGSAMEVKIIPGSKEAIINDPENGKPIPATIIEIEPIEPDKNLFKAKVKIPSNGGWKEVLVDLGSAGGSA [r15_209_TrMRF] | < -1 | -1.23 ± 0.39 |
| SAGGSAMKTLTATFSDGRSVTVEPENRTVTVSTPESSISTIPVPPDVPEVTITTPSGVTITLTVDTSAGGSA [r2_385_JUSTAS] | -0.107 ± 0.12 | 0.287 ± 0.083 |
| SAGGSAMPPEWQREVVLTPVEIDIPEPPEVEVVEYDPSTGTITISVPKSPLTLTYDALTGTVHTIGSAGGSA [r15_452_JUSTAS] | -0.873 ± 0.47 | -0.488 ± 0.61 |
| SAGGSAPVTPDELVERVMQYIQGQNGMPPGDTPEQMRDNGMPIKIPITVEDPDGEPIAEVEIEFPMSAGGSA [r15_391_TrROS] | -0.0929 ± 0.24 | 0.637 ± 0.054 |
| SAGGSASLDIVEELIEEEIKDSKGTKIKILKPIIYYPGKGLVLSNVTVYKPDGTKISTEKKIEPVGSAGGSA [r15_967_JUSTAS] | < -1 | -0.635 ± 0.25 |
